Measurements from the supplement of paper PMC12042874.
± gives the uncertainty stated by the source.

Test: amyloid nucleation score (Sup35N fusion, yeast selection) (log enrichment); library NNK1; higher = more nucleation; inactive = no reads after selection
Outline: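 Sup35N fusions to peptides of 20 random codons were expressed in psi-negative yeast, induced 24 hours with 100 μM copper sulfate, and grown 7 days at 30°C on medium lacking adenine and uracil. Input and output plasmid inserts were sequenced by Illumina. The nucleation score is the DiMSum log enrichment of output over input reads, centred on the mode score of non-aggregating sequences. Sequences with under 100 input reads were excluded.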

Row | Substance | amyloid nucleation score
1 | LAPNDGGRALSVDMRGWCDW | inactive
2 | LARDYGFD | 0.051 ± 0.3
3 | LATFVWPGHGRV | 1.65 ± 0.14
4 | LATGHVFYGFG | -0.116 ± 0.36
5 | LAVDMQRF | 0.224 ± 1.4
6 | LAVEWWTNVVYVFYAYFANR | 0.001 ± 0.25
7 | LAYSNWALSCGIHIFRVTTS | 0.792 ± 0.27
8 | LCAREFVDCEAILVRLWFVY | -1.18 ± 1.1
9 | LCFLTSIQCTALLDHQLVPR | 6.17 ± 0.079
10 | LCFLWIGVP | -0.241 ± 1
11 | LCFVRMRYLFESDCPRHRKH | 0.384 ± 0.65
12 | LCGEGRFLQTWRSLSFP | -0.865 ± 0.39
13 | LCGIVRKILQTSKRSR | 0.063 ± 0.49
14 | LCISARDLNNFGRNHMHFLL | -0.296 ± 0.34
15 | LCKDLAKHHN | 4.97 ± 0.056
16 | LCLILVGSY | 0.062 ± 0.79
17 | LCNLGMLRLSGMENRINRVG | 1.29 ± 0.6
18 | LCQGEKISPVKQHHVYCLGE | 0.649 ± 0.85
19 | LCSFKFSVRPLCKKRFKVRV | 0.099 ± 0.34
20 | LCSMWEGRGADEMLAICQGA | 0.152 ± 0.59
21 | LCSNC | inactive
22 | LCTRFWDTMYLSSGYFGFLC | 1.03 ± 0.46
23 | LCYAGVVLQYVILDHKRSCD | 6.233 ± 0.059
24 | LDIDTKW | -0.204 ± 0.38
25 | LDINDTMYETNCFG | -0.488 ± 0.58

Row | Substance | amyloid nucleation score
26 | LDKSGSLVPKRKVTLKDKQR | -0.375 ± 0.41
27 | LDLINRMGNVGMLIMDCYKI | 0.159 ± 0.43
28 | LDRAVHPGVVSPWSQVTRTM | 0.749 ± 0.38
29 | LDRFVYY | 1.41 ± 0.69
30 | LDTVYNVSMKKIKVTSIGQC | -0.537 ± 0.47
31 | LEGLRQDEVGRSASKTVKYS | 1.18 ± 0.76
32 | LELTC | 1.6 ± 0.53
33 | LEMVINSFRELSLAY | -0.212 ± 0.46
34 | LFCDPAFGKHLCFRNAFCWF | 0.255 ± 0.23
35 | LFDDS | -0.356 ± 0.46
36 | LFDSLEAVYRSYGKSWACYI | -1.63 ± 0.9
37 | LFDVYN | -0.549 ± 0.49
38 | LFEGHLTSISEPGVVDRSIR | -0.573 ± 1.7
39 | LFESGSRDFLRQKLTFGTVP | 0.066 ± 0.7
40 | LFGGFMFLGKWDQLHGHNEC | 0.799 ± 0.49
41 | LFGPDLSTRNPGDVSVQSAA | 0 ± 0.39
42 | LFGVFGFISVVSFSP | -0.455 ± 1.7
43 | LFKNRVRLLLHERSLLPVII | 0.469 ± 0.68
44 | LFKYYNWVGTLVTYIMIYVW | -1.62 ± 0.62
45 | LFLKFGGSFAVIFWILVAAV | 0.74 ± 0.48
46 | LFLLSTSESCFQCATPANDN | -0.222 ± 0.59
47 | LFNILASFSYFAFYYLLLLS | -0.492 ± 0.8
48 | LFQSA | 0.854 ± 0.17
49 | LFRGT | -0.457 ± 0.27
50 | LFRYNDWCAYHLPSPWWGNR | 0.112 ± 0.83

Row | Substance | amyloid nucleation score
51 | LFSIGALY | -0.035 ± 0.2
52 | LFSLNTLCM | 0.985 ± 0.51
53 | LFWSET | -0.526 ± 0.81
54 | LFYDDEES | inactive
55 | LGCFGIAATKIRKVDMRLGG | 0.729 ± 0.39
56 | LGCLYIA | -0.711 ± 0.44
57 | LGIYNGEASRWYRESTPAQ | -0.443 ± 0.92
58 | LGKPVWVQEAKLDADNLWCV | -0.438 ± 0.49
59 | LGKQAMC | -1.34 ± 2.4
60 | LGLRGKKLRIINAPYTTGRN | -0.64 ± 0.98
61 | LGMSKLIMSNNVFNIFDSHP | 0.847 ± 0.9
62 | LGPDSLHLFGMVGSGRLNIL | -0.029 ± 0.88
63 | LGQHRKPSYKHSAKHKLFVD | 0.519 ± 0.36
64 | LGRGRKSTMVSQRVERAGVC | -0.626 ± 0.58
65 | LGRGSAVSSPWVIIRIVNML | 0.784 ± 0.72
66 | LGSWARD | -0.27 ± 0.54
67 | LGTTDPYVYSIIMYAFLWIY | 0.386 ± 0.47
68 | LGVQFSGRLSVPVYFMWFTL | 0.814 ± 0.61
69 | LGVRRPQEISCHADHASRWL | -0.776 ± 1.3
70 | LGVVFGRRVHCRLASSVMNM | -0.723 ± 1.5
71 | LGYIVRFQCMYTRRYCSCPD | -1.47 ± 2.7
72 | LHGPWVVYFELSSIFTLTYQ | -0.478 ± 0.29
73 | LHKIHNAIDILS | 0.504 ± 0.56
74 | LHLPHLRIRTNYSGLILSVM | -0.513 ± 0.56
75 | LHLRTVAGSWSNIFYLAAPM | 0.433 ± 0.31

Row | Substance | amyloid nucleation score
76 | LHQSVMRWLAASWCPQIKLG | 0.338 ± 0.97
77 | LHSPDFDLYYVLRILACDTQ | -0.866 ± 1.7
78 | LHSSMNCRWIHTL | 0.618 ± 0.47
79 | LHTTKK | 0.293 ± 0.48
80 | LHVEWSASMSMFCLNHRIAA | -0.172 ± 0.61
81 | LHYCTCSIRSIF | 0.325 ± 0.6
82 | LICLGRPTSNTELGMNDINF | -0.349 ± 0.84
83 | LIDLSSIKSWHVFSKALCGR | 0.006 ± 0.27
84 | LIGQLIFRPVNGARKIPV | -0.31 ± 0.29
85 | LIHYNNNVYTRWAWSSQQGE | 2.75 ± 0.2
86 | LILFLASV | 1.35 ± 0.27
87 | LILKISMMGK | inactive
88 | LIMSFVFSI | 4.57 ± 0.08
89 | LIPSRFMVNGDTIL | 0.971 ± 0.28
90 | LIQRLVFEYMFPVIGVPISW | -0.208 ± 0.65
91 | LIRTLANWLSIPHVLI | -0.351 ± 0.3
92 | LISYRYFFCHRECVLVIGSN | 0.327 ± 0.6
93 | LITYLRLFYRITVRTG | 0.48 ± 0.4
94 | LIVNLKICAVHVGYHWGWRA | 0.653 ± 0.29
95 | LIWWFEGRPRVSGGFSVFDV | -0.304 ± 1.1
96 | LKASMW | 0.322 ± 0.37
97 | LKCFLINVMLLEMLPFWDRS | 1.62 ± 0.55
98 | LKGHLHDSILQCRHKALFF | 0.922 ± 0.75
99 | LKHPDIYRKVERKVRVNMFF | -0.792 ± 0.31
100 | LKHRRSWYLTYIDCAGM | -0.294 ± 0.43

Row | Substance | amyloid nucleation score
101 | LKKHADNSLDVRS | inactive
102 | LKLGYMNLLISDRCAVIERY | 0.969 ± 0.81
103 | LKRDVTSVSGY | 0.348 ± 0.38
104 | LKRFMDTDYYFMMKCCTSN | 0.843 ± 0.55
105 | LKYKKLPFIKRDEKFPTNRN | 0.398 ± 0.54
106 | LLAFL | -0.704 ± 0.55
107 | LLDMHYTLEWCTKCYTDKVQ | 0.121 ± 0.26
108 | LLDVLMDGRFSFVQRYCRAD | 1.05 ± 0.2
109 | LLESFTG | -0.392 ± 0.46
110 | LLGYRTYEMEHSCILRPRNK | 0.887 ± 0.57
111 | LLITNGMSNDGNQCSS | inactive
112 | LLKIGVA | -0.465 ± 1.5
113 | LLLYLTLAIGSRLCRELPQR | 0.523 ± 0.43
114 | LLMAIVCIMIRQGFLRHVSP | -0.086 ± 0.56
115 | LLMPDSNG | -0.699 ± 0.3
116 | LLMYKKCRQWGCGNVSCSFD | 7.086 ± 0.065
117 | LLNDSINNPQCFIVSSSGHL | -0.541 ± 0.39
118 | LLNFFK | 0.609 ± 1.1
119 | LLNGEQLQSSDNIRLWIAFR | 0.151 ± 0.41
120 | LLRMIKICYDLRSNLDSWRS | -0.529 ± 1.7
121 | LLRRLTTI | 0.696 ± 0.52
122 | LLSFLRSAKIQTGR | 0.229 ± 0.38
123 | LLSLFRYN | 0.537 ± 1.1
124 | LLSYPIPDMYSIEATTKRRI | 0.133 ± 1.4
125 | LLVLSLINFFFKKRAFCPIT | 2.11 ± 0.6

Row | Substance | amyloid nucleation score
126 | LLVSVFTRYFPGNVRVTWGT | -0.21 ± 0.32
127 | LLVVRNLEGNNIHALVLCVG | 1.91 ± 0.21
128 | LLYGA | -0.727 ± 1.4
129 | LLYIILFRNYILYKLWIRFA | 0.572 ± 0.3
130 | LLYPHSTSRGLIMTFYPKSG | 0.54 ± 0.6
131 | LLYTVY | -0.849 ± 1.2
132 | LMESVAVFPNSRLPILTEC | -0.011 ± 0.56
133 | LMGECGLSFLTPY | 0.275 ± 0.84
134 | LMNVVLISHKSFVYSR | -1.16 ± 2.7
135 | LMPARLNYERTALSMPKWSE | -0.38 ± 0.63
136 | LMQLHCLARSLYPFPWSGPT | 1.96 ± 0.42
137 | LMRRGGCVYVGFFWELVCFQ | -0.524 ± 0.83
138 | LMSLVNPTRVSLFFDH | -0.11 ± 0.68
139 | LMVNLYPY | 0.16 ± 0.4
140 | LMVYK | 0.575 ± 0.55
141 | LMYKICTLVRRLHLSRYKNM | -1.27 ± 1.7
142 | LNATGSLPYDIMECTKELWP | -0.343 ± 0.7
143 | LNEHLFR | 0.615 ± 0.87
144 | LNFVNAPRSHMSGYSIGGLC | -1.5 ± 1.7
145 | LNGIFNNPY | -0.512 ± 0.78
146 | LNGRYLDVLHQVIHQNVREP | 3.01 ± 0.22
147 | LNGTLSCNAISFFIMFA | 0.846 ± 0.44
148 | LNIEVFNFICNRRAIWMRFA | 0.684 ± 0.53
149 | LNINSKYLNLICYHIRHLAV | -0.593 ± 0.78
150 | LNMHSR | inactive

Row | Substance | amyloid nucleation score
151 | LNNAGTFFLPEVFRLRWTNV | 0.018 ± 0.93
152 | LNNLCNGMGGL | -0.78 ± 0.53
153 | LNNLVFVLLV | 3.37 ± 0.09
154 | LNSLPLSTVLYSFRVMYWMY | inactive
155 | LNSLVKALQSVNNYVDLTYS | 0.358 ± 1.1
156 | LNVYWRPCNN | 0.717 ± 0.9
157 | LPCSRRTTPSDVCP | -0.271 ± 0.36
158 | LPDNSIYRYLSY | 0.149 ± 0.42
159 | LPGDDTSCEDLSGGVPLWNG | inactive
160 | LPGFYDRKICKSLSMIYRLS | -0.405 ± 1.7
161 | LPGTSRRASRCLFACYVDMS | 0.676 ± 0.39
162 | LPIVGFSCFEFIMIERMRLV | inactive
163 | LPKKDNHSSTNA | -1.77 ± 2.4
164 | LPVLSGWTNTAA | -0.73 ± 0.59
165 | LQKVFLAVDSYW | -0.347 ± 0.92
166 | LQLIGYRDNWSGVMFYLERG | 0.838 ± 0.55
167 | LQLTYPPLVVPSSRWCLLLS | -0.099 ± 0.97
168 | LQLYQVFSVHYEC | 3.08 ± 0.11
169 | LQNVGRENEESTCERRSKVY | inactive
170 | LQTGRYDWKVDPINSSMESV | 0.26 ± 0.7
171 | LQYGNWPGGVFVWWFIKMHH | -0.02 ± 0.71
172 | LRCVLQSRRWEIGMLRLTER | -0.267 ± 0.35
173 | LRGIDRTALGSGSERYLCLL | -0.253 ± 0.59
174 | LRHRKSRNRVSCHCLGHGCW | 1.54 ± 0.84
